Biological target: Fhb7
Test: crystal structure

Question: For Fhb7 (enzyme), which stoichiometry N is on record?
Answer: 2

From publication PMC10900206
